# Test results as given in patent publication US20180237511A1 (Sanofi, published 2018).
# Like-named read-outs stand apart in the source and are kept apart here.
# T1: murine beta-dystroglycan extracellular domain (mbeta-DG ECD), HPC4 tagged (mouse, UniProt Q62165 652-746)
# T1 construct: range 652-746; Made in E. coli as MBP fusion; MBP cleaved off with TEV protease; also called mbeta-DG-HPC4; murine beta-DG; not shown: C-terminal HPC4 tag
# T1 sequence (looked up): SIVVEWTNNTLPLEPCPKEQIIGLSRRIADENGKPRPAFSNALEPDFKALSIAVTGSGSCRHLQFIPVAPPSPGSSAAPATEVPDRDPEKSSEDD
# T2: human beta-dystroglycan extracellular domain (soluble) (human, UniProt Q14118 654-749)
# T2 construct: extracellular domain; The expression construct of soluble human beta-DG is not described (only the mouse one); One entry is used for all soluble human beta-DG, also for the crystal structure; also called hBeta-DG; hbeta-DG
# T2 sequence (looked up): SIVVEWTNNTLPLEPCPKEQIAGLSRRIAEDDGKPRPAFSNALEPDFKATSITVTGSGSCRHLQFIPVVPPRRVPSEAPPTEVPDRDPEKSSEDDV
# T3: human beta-DG fused to the human hIgG1 Fc antibody region (hbeta-DG-hFc) (human, UniProt Q14118 654-749, limits assumed)
# T3 construct: not shown: human IgG1 Fc region
# T3 sequence (looked up): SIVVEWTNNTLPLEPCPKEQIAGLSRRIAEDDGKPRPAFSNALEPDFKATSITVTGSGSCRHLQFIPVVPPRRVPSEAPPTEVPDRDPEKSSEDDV
# T4: human laminin G-like 4 and 5 domains of laminin-2 (hLG-4/5), soluble (human, UniProt P24043 2729-3122, biotinylated in the ELISA of Example 6)
# T4 construct: range 2729-3122; also called human LG-4/5; hLG4/LG5; not shown: Avi tag and HPC4 tag left after TEV cleavage of the N-terminal mIgG2a fusion partner
# T4 sequence (looked up): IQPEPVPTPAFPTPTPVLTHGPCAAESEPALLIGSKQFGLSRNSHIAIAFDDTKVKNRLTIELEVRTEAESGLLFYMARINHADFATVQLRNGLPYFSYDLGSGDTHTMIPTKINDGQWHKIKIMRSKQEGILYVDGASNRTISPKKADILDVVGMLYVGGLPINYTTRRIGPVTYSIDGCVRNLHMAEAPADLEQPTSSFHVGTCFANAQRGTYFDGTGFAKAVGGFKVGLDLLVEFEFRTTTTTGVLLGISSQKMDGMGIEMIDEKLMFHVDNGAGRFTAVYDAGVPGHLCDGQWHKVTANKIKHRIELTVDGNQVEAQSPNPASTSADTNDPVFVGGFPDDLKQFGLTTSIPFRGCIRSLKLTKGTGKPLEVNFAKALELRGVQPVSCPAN
# T5: murine laminin G-like 4 and 5 domains of laminin-2 (mLG-4/5), soluble (mouse, UniProt Q60675 2725-3118)
# T5 construct: range 2725-3118; also called murine LG-4/5; not shown: Avi tag and HPC4 tag left after TEV cleavage of the N-terminal mIgG2a fusion partner
# T5 sequence (looked up): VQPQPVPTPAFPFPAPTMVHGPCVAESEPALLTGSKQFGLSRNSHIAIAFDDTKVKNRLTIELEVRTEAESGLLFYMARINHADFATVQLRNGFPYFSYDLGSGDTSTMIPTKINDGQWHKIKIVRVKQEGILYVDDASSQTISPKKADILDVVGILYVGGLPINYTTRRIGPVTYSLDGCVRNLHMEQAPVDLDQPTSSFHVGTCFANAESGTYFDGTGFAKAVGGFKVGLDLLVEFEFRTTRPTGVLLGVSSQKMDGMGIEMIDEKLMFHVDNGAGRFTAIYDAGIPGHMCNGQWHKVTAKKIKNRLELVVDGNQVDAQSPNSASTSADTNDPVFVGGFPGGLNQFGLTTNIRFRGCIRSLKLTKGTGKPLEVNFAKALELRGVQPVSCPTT
# T6: human laminin G-like 5 domain of laminin-2 (hLG-5) (human, UniProt P24043 2936-3122, soluble biotinylated protein (Avi tag))
# T6 construct: The construct used for the crystal structure with C21 Fab is not described; the same entry is used; also called human LG-5; human LG5; not shown: N-terminal Avi and HPC4 tags
# T6 sequence: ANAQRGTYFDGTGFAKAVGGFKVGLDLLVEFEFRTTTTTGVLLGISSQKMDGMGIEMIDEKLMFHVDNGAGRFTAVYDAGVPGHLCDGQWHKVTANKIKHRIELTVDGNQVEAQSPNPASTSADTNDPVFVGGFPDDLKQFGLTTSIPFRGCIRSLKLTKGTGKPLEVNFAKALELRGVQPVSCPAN
# Tests used:
# [1] = target: T1, murine beta-dystroglycan extracellular …; test: SPR (Biacore) kinetics; mAb immobilized, mBeta-DG in flow
# [2] = target: T2, human beta-dystroglycan extracellular …; test: SPR (Biacore) kinetics; mAb immobilized, hBeta-DG in flow
# [3] = target: T2, human beta-dystroglycan extracellular …; test: sequential SPR (Biacore): antibody immobilised on a CM5 chip, human LG-4/5 and then human beta-DG flowed over
# Description: Parental monoclonal antibodies (AS19, C3 and C21) and three bispecific antibodies (AS19×C3 and AS30×C3 in TBTI, and AS30×C3 in CODVIg) were each immobilized onto individual CM5 Series S Biacore chips (GE Healthcare). Human or murine LG-4/5, followed in sequence by human or murine beta-DG, was flown over each chip and binding was assessed.
# Parental mAbs to LG-4/5 or beta-DG and biAbs of anti-LG4/5 and beta-DG were captured onto biacore chips, and then flowed with human LG4/5 and human beta-DG sequentially to determine their concurrent bindings to both antigens. […] In contrast, parental monoclonal antibodies were only able to bind to one target, either LG-4/5 (C3 and C21 in FIGS. 6A & 6B) or beta-DG (AS19 in FIGS. 6A & 6B).
# [4] = target: T3, human beta-DG fused to the human hIgG1 …; test: double deck sandwich ELISA: plate coated with human LG-4/5, then mAb, then hbeta-DG-hFc, HRP anti-hFc
# Description: (§1) 96-well plates were coated with 50 ng human LG-4/5 and blocked with 5% fetal bovine serum in PBS. Each well was incubated with 1 μg of the generated bispecific antibodies (murine IgG backbone). After 2 hours, wells were washed with PBS and re-incubated with 16 ng to 1 μg per well of human beta-DG fused to the human hIgG1 Fc antibody region (hbeta-DG-hFc). After 2 hours, wells were washed with PBS, incubated with a HRP conjugated anti-hFc secondary antibody for 45 minutes, washed again with PBS, and developed for colorimetric measuring.
# (§2) Colorimetric signals could be detected only when hLG-4/5 and hbeta-DG-hFc were both added in the assay (FIG. 7). No signal was detected when parental monoclonal antibodies were used or when hbeta-DG-hFc was omitted. Three bispecific antibodies (biAbs), T1T2, T5T6, and C5C6, had the anticipated signal indicating simultaneous binding to both targets. The parental anti-LG4/5 or anti-beta-DG mAbs, or biAbs without beta-DG-hFc in the 2nd step were all negative in this assay.
# [5] = target: T4, human laminin G-like 4 and 5 domains of …; test: SPR (Biacore) kinetics, antibody as ligand on the chip, hLG4/5 monomer in flow, fit 1:1 Binding
# [6] = target: murine laminin G-like 5 domain of laminin-2 (mLG-5) (mouse) (UniProt Q60675); test: SPR (Biacore) kinetics; mAb immobilized, mLG-5 in flow
# [7] = target: T5, murine laminin G-like 4 and 5 domains …; test: SPR (Biacore) kinetics, antibody as ligand on the chip, mLG4/5 monomer in flow, fit 1:1 Binding
# [8] = target: T6, human laminin G-like 5 domain of …; test: SPR (Biacore) kinetics; mAb immobilized, hLG-5 in flow
# [9] = target: T4, human laminin G-like 4 and 5 domains of …; test: SPR (Biacore) kinetics, antibody as ligand on the chip, hLG4/5 monomer in flow, fit 1:1 Binding; remark: listed apart in the source
# [10] = target: T5, murine laminin G-like 4 and 5 domains …; test: SPR (Biacore) kinetics, antibody as ligand on the chip, mLG4/5 monomer in flow, fit 1:1 Binding; remark: listed apart in the source
# [11] = target: T3, human beta-DG fused to the human hIgG1 …; test: double deck sandwich ELISA: plate coated with human LG-4/5, then biAb, then hbeta-DG-hFc, HRP anti-hFc; a signal needs both bindings at once
# Description: as §1, §2
Binder,binding result [3],binding result [4],Kd [6] [nM],koff [6] [s⁻¹],kon [6] [M⁻¹ s⁻¹],Kd [8] [nM],koff [8] [s⁻¹],kon [8] [M⁻¹ s⁻¹],further results
"anti-beta-DG antibody derived from phage display clone B04 (antibody, V domains shown, Phage display clone) VH: QVQLQQSGGGLVQPGGSLRLSCAASGFTFSSYAMSWVRQAPGKGLEWVSAISGSGGSTYYADSVKGRFTVSRDNSKNTLYLQMNSLRAEDTAVYYCARLGYCSSTSCYLSAFDIWGQGTMVTVSS VL: EIVLTQSPSTLSASVGDRVTITCRASQSISSWLAWYQQKPGKAPKLLIYDASSLESGVPSRFSGSGSGTEFTLTISSLQPDDFATYYCQQYNSYPLTFGGGTKVEIK",–,–,–,–,–,–,–,–,Kd [1]: 25.7 nM; koff [1]: 0.0016 s⁻¹; kon [1]: 62000 M⁻¹ s⁻¹; koff [2]: 0.0016 s⁻¹; kon [2]: 62000 M⁻¹ s⁻¹
"anti-laminin-2 antibody derived from hybridoma clone C21 (antibody, V domains shown, Hybridoma monoclonal antibody (detected with anti-mouse IgG); also called anti-laminin-2(C21)) VH: EVMLVESGGGLVKPGGSLKLSCAASGFTFSSYTMSWVRQTPEKRLEWVATISSGGDNTYYPDSVKGRFTISRDNAKNNLYLQMSSLRSEDTALYYCARFDYGSSLDCWGQGTTLTVSS VL: DIVLTQSPATLSVTPGDSVSLSCRASQSISNYLHWYQQKSHESPRLLIKYASQSISGIPSRFSGSGSGTDFTLSINSVETEDFGMYFCQQSKSWPRTFGGGTELEIK",no binding,no binding (tested: 1000 ng/ml),3.04,0.00253,813000,2.8,0.00131,467000,Kd [5]: 2.8 nM; koff [5]: 0.00131 s⁻¹; kon [5]: 467000 M⁻¹ s⁻¹; Kd [7]: 3.04 nM; koff [7]: 0.00253 s⁻¹; kon [7]: 813000 M⁻¹ s⁻¹
"anti-laminin-2 antibody derived from hybridoma clone C3 (antibody, V domains shown, Hybridoma monoclonal antibody (detected with anti-mouse IgG); also called C03; anti-laminin-2(C3)) VH: DVMLVESGGDLVKPGGSLKLSCAASGFTFSSYTMSWVRQTPEKRLEWVASISSGGGNTYYPDSVKGRFTISRDNAKNNLYLQMSSLRSEDTALYYCARFDYGSSLDSWGQGTTLTVSS VL: DIVLTQSPATLSVTPGDSVSLSCRASQSISNNLHWYQQKSHESPRLLIKYASQSISGIPSRFSGSGSGTDFTLSINSVETEDFGMYFCQQSKNWPRTFGGGTKLEIK",no binding,no binding (tested: 1000 ng/ml),8.27,0.00429,519000,2.66,0.0013,488000,koff [9]: 0.0013 s⁻¹; kon [9]: 488000 M⁻¹ s⁻¹; koff [10]: 0.00429 s⁻¹; kon [10]: 519000 M⁻¹ s⁻¹
"bispecific antibody T1T2: anti-beta-DG(AS19) x anti-laminin-2(C3), TBTI with (GGGGS)2 linker (bispecific antibody, also called AS19xC3 in TBTI; biAb (AS19xC3); not shown: IgG1 heavy chain constant region: murine IgG1 (GenBank AAA75163.1) or human IgG1 (Genbank Q569F4); murine IgG backbone i; kappa light chain constant region: murine kappa chain (Genbank BAB33404) or human kappa chain (Genbank Q502W4)) heavy: QVQLQQSGPELVKPGASVKMSCKASGFTFTDSVISWVKQRTGQGLEWIGEIYPGSGSIYYNEKFKGKATLTADKSSNTAYMQLRSLTSEDSAVYFCAMRRSYWGQGTLVTVSAGGGGSGGGGSDVMLVESGGDLVKPGGSLKLSCAASGFTFSSYTMSWVRQTPEKRLEWVASISSGGGNTYYPDSVKGRFTISRDNAKNNLYLQMSSLRSEDTALYYCARFDYGSSLDSWGQGTTLTVSS light: DVLMTQTPLSLPVSLGDQASISCRSSQSIVHSNGNTYLEWYLQKPGQSPKLLIYKVSNRFSGVPDRFSGSGSGTDFTLKISRVEAEDLGVYYCFQGSHVPLTFGAGTKLELKGGGGSGGGGSDIVLTQSPATLSVTPGDSVSLSCRASQSISNNLHWYQQKSHESPRLLIKYASQSISGIPSRFSGSGSGTDFTLSINSVETEDFGMYFCQQSKNWPRTFGGGTKLEIK",binds,–,–,–,–,–,–,–,binding result [11]: binds
